The subject of data set [1] is HeLa Kyoto. The data set can be described thus: solubility change mitosis vs G1/S (difference of NP-40 vs SDS log2 ratios) (log2 ratio difference); higher = more soluble in mitosis.
For data set [2], the system named is HeLa Kyoto. The data set can be described thus: thermal stability score vs G1/S (z-score of summed log2 fold changes over temperatures); higher = more thermally stable than in G1/S.
The test system of data set [3] is HeLa Kyoto. The data set can be described thus: solubility in G1/S (NP-40 vs SDS abundance) (log2 ratio); higher = more soluble. The conditions noted are these: cell cycle stage: G1/S.
The test system of data set [4] is HeLa Kyoto. In words: melting temperature (median over replicates), in situ; higher = more thermally stable.
[5] abbreviates: cell cycle stage: early G1 (4.5 h after nocodazole release).
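For melting temperature (median over replicates), in situ in this document: HeLa Kyoto cells synchronized by double thymidine or nocodazole block, proteins quantified by TMT10plex mass spectrometry, three independent biological replicates.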
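For solubility change mitosis vs G1/S (difference of NP-40 vs SDS log2 ratios) in this document: synchronized HeLa Kyoto cells (double thymidine block for G1/S, nocodazole release for mitosis), protein amounts in NP-40 versus SDS lysates quantified by mass spectrometry, three biological replicates.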
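For solubility in G1/S (NP-40 vs SDS abundance) in this document: HeLa Kyoto cells arrested at G1/S by double thymidine block, proteins quantified by TMT10plex mass spectrometry in mild NP-40 versus SDS extracts, three biological replicates.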
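For thermal stability score vs G1/S (z-score of summed log2 fold changes over temperatures) in this document: synchronized HeLa Kyoto cells, proteins quantified by TMT10plex mass spectrometry, three biological replicates, mitosis taken 0.5 h after nocodazole release, G1/S directly after double thymidine block.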

On to “MAMVSEFLKQAWFIENEEQEYVQTVKSSKGGPGSAVSPYPTFNPSSDVAALHKAIMVKGVDEATIIDILTKRNNAQRQQIKAAYLQETGKPLDETLKKALTGHLEEVVLALLKTPAQFDADELRAAMKGLGTDEDTLIEILASRTNKEIRDINRVYREELKRDLAKDITSDTSGDFRNALLSLAKGDRSEDFGVNEDLADSDARALYEAGERRKGTDVNVFNTILTTRSYPQLRRVFQKYTKYSKHDMNKVLDLELKGDIEKCLTAIVKCATSKPAFFAEKLHQAMKGVGTRHKALIRIMVSRSEIDMNDIKAFYQKMYGISLCQAILDETKGDYEKILVALCGGN [ANXA1]”, for which the “solubility change mitosis (log2)” value in the data set with HeLa Kyoto [1] came out at 0.0587. The figures for the thermal stability score in the data set with HeLa Kyoto [2] (setting [5]) and with HeLa Kyoto [2] (cell cycle stage: mitosis) were 3.41 and 3.05, respectively. The “solubility in G1/S (log2)” value in the data set with HeLa Kyoto [3] worked out at 0.618. Also, the melting temperature with HeLa Kyoto [4] (cell cycle stage: G1/S) was found to be 49.1 °C; with HeLa Kyoto [4] (cell cycle stage: mitosis) it was 49.6 °C.
Take “MAMVTGGWGGPGGDTNGVDKAGGYPRAAEDDSASPPGAASDAEPGDEERPGLQVDCVVCGDKSSGKHYGVFTCEGCKSFFKRSIRRNLSYTCRSNRDCQIDQHHRNQCQYCRLKKCFRVGMRKEAVQRGRIPHSLPGAVAASSGSPPGSALAAVASGGDLFPGQPVSELIAQLLRAEPYPAAAGRFGAGGGAAGAVLGIDNVCELAARLLFSTVEWARHAPFFPELPVADQVALLRLSWSELFVLNAAQAALPLHTAPLLAAAGLHAAPMAAERAVAFMDQVRAFQEQVDKLGRLQVDSAEYGCLKAIALFTPDACGLSDPAHVESLQEKAQVALTEYVRAQYPSQPQRFGRLLLRLPALRAVPASLISQLFFMRLVGKTPIETLIRDMLLSGSTFNWPYGSGQ [NR2F6]”: the “solubility change mitosis (log2)” value with HeLa Kyoto [1] was -0.047. Also, the thermal stability score was determined as 0.278 with HeLa Kyoto [2] (setting [5]) and 0.498 in the data set on HeLa Kyoto [2] (cell cycle stage: mitosis). In the data set with HeLa Kyoto [3], the “solubility in G1/S (log2)” value turned out to be 0.0616. In addition, the melting temperature turned out to be 53.1 °C in the data set on HeLa Kyoto [4] (cell cycle stage: G1/S) and 50.3 °C with HeLa Kyoto [4] (cell cycle stage: mitosis).
Regarding “MANMQGLVERLERAVSRLESLSAESHRPPGNCGEVNGVIAGVAPSVEAFDKLMDSMVAEFLKNSRILAGDVETHAEMVHSAFQAQRAFLLMASQYQQPHENDVAALLKPISEKIQEIQTFRERNRGSNMFNHLSAVSESIPALGWIAVSPKPGPYVKEMNDAATFYTNRVLKDYKHSDLRHVDWVKSYLNIWSELQAYIKEHHTTGLTWSKTGPVASTVSAFSVLSSGPGLPPPPPPLPPPGPPPLFENEGKKEESSPSRSALFAQLNQGEAITKGLRHVTDDQKTYKNPSLRAQGGQTQSPTKSHTPSPTSPKSYPSQKHAPVLELEGKKWRVEYQEDRNDLVISETELKQVAYIFKCEKSTIQIKGKVNSIIIDNCKKLGLVFDNVVGIVEVINSQDIQIQVMGRVPTISINKTEGCHIYLSEDALDCEIVSAKSSEMNILIPQDGDYREFPIPEQFKTAWDGSKLITEPAEIMA [CAP2]”, the “solubility change mitosis (log2)” value with HeLa Kyoto [1] was -0.179. Besides, the values for the thermal stability score in the data set on HeLa Kyoto [2] (setting [5]) and in the data set with HeLa Kyoto [2] (cell cycle stage: mitosis) were -1.54 and -2.12, respectively. In the data set on HeLa Kyoto [3], the “solubility in G1/S (log2)” value was found to be 0.136. Further, the figures for the melting temperature in the data set on HeLa Kyoto [4] (cell cycle stage: G1/S) and with HeLa Kyoto [4] (cell cycle stage: mitosis) were 51.3 °C and 50.3 °C, respectively.
As to “MANNSPALTGNSQPQHQAAAAAAQQQQQCGGGGATKPAVSGKQGNVLPLWGNEKTMNLNPMILTNILSSPYFKVQLYELKTYHEVVDEIYFKVTHVEPWEKGSRKTAGQTGMCGGVRGVGTGGIVSTAFCLLYKLFTLKLTRKQVMGLITHTDSPYIRALGFMYIRYTQPPTDLWDWFESFLDDEEDLDVKAGGGCVMTIGEMLRSFLTKLEWFSTLFPRIPVPVQKNIDQQIKTRPRKIKKDGKEGAEEIDRHVERRRSRSPRRSLSPRRSPRRSRSRSHHREGHGSSSFDRELEREKERQRLEREAKEREKERRRSRSIDRGLERRRSRSRERHRSRSRSRDRKGDRRDRDREREKENERGRRRDRDYDKERGNEREKERERSRERSKEQRSRGEVEEKKHKEDKDDRRHRDDKRDSKKEKKHSRSRSRERKHRSRSRSRNAGKRSRSRSKEKSSKHKNESKEKSNKRSRSGSQGRTDSVEKSKKREHSPSKEKSRKRSRSKERSHKRDHSDSKDQSDKHDRRRSQSIEQESQEKQHKNKDETV [PRPF38B]”, in the data set with HeLa Kyoto [1], the “solubility change mitosis (log2)” value was determined as 0.407. The thermal stability score is 0.848 in the data set with HeLa Kyoto [2] (setting [5]) and 1.5 with HeLa Kyoto [2] (cell cycle stage: mitosis). In addition, the “solubility in G1/S (log2)” value in the data set on HeLa Kyoto [3] is -0.989. The melting temperature in the data set with HeLa Kyoto [4] (cell cycle stage: G1/S) was 50 °C; in the data set on HeLa Kyoto [4] (cell cycle stage: mitosis), 50.6 °C.
Consider “MANPKEKTAMCLVNELARFNRVQPQYKLLNERGPAHSKMFSVQLSLGEQTWESEGSSIKKAQQAVANKALTESTLPKPVQKPPKSNVNNNPGSITPTVELNGLAMKRGEPAIYRPLDPKPFPNYRANYNFRGMYNQRYHCPVPKIFYVQLTVGNNEFFGEGKTRQAARHNAAMKALQALQNEPIPERSPQNGESGKDVDDDKDANKSEISLVFEIALKRNMPVSFEVIKESGPPHMKSFVTRVSVGEFSAEGEGNSKKLSKKRAATTVLQELKKLPPLPVVEKPKLFFKKRPKTIVKAGPEYGQGMNPISRLAQIQQAKKEKEPDYVLLSERGMPRRREFVMQVKVGNEVATGTGPNKKIAKKNAAEAMLLQLGYKASTNLQDQLEKTGENKGWSGPKPGFPEPTNNTPKGILHLSPDVYQEMEASRHKVISGTTLGYLSPKDMNQPSSSFFSISPTSNSSATIARELLMNGTSSTAEAIGLKGSSPTPPCSPVQPSKQLEYLARIQGFQAALSALKQFSEQGLDPIDGAMNIEKGSLEKQAKHLREKADNNQAPPGSIAQDCKKSNSAV [STAU2]”, for which the “solubility change mitosis (log2)” value in the data set on HeLa Kyoto [1] is 0.169. In addition, the thermal stability score in the data set with HeLa Kyoto [2] (setting [5]) was determined as 0.426; in the data set with HeLa Kyoto [2] (cell cycle stage: mitosis), 1.69. Also, the “solubility in G1/S (log2)” value with HeLa Kyoto [3] was -0.227. The melting temperature came to 49.1 °C in the data set with HeLa Kyoto [4] (cell cycle stage: G1/S) and 50.3 °C in the data set on HeLa Kyoto [4] (cell cycle stage: mitosis).
On to “MANRGPAYGLSREVQQKIEKQYDADLEQILIQWITTQCRKDVGRPQPGRENFQNWLKDGTVLCELINALYPEGQAPVKKIQASTMAFKQMEQISQFLQAAERYGINTTDIFQTVDLWEGKNMACVQRTLMNLGGLAVARDDGLFSGDPNWFPKKSKENPRNFSDNQLQEGKNVIGLQMGTNRGASQAGMTGYGMPRQIL [TAGLN2]”, for which the “solubility change mitosis (log2)” value in the data set on HeLa Kyoto [1] was determined as 0.461. In addition, the results for the thermal stability score in the data set with HeLa Kyoto [2] (setting [5]) and with HeLa Kyoto [2] (cell cycle stage: mitosis) were -1.52 and -1.77, respectively. Also, the “solubility in G1/S (log2)” value in the data set with HeLa Kyoto [3] came out at 0.348. The melting temperature in the data set on HeLa Kyoto [4] (cell cycle stage: G1/S) is 50.9 °C; with HeLa Kyoto [4] (cell cycle stage: mitosis) it was 51.7 °C.
With “MANRTVKDAHSIHGTNPQYLVEKIIRTRIYESKYWKEECFGLTAELVVDKAMELRFVGGVYGGNIKPTPFLCLTLKMLQIQPEKDIIVEFIKNEDFKYVRMLGALYMRLTGTAIDCYKYLEPLYNDYRKIKSQNRNGEFELMHVDEFIDELLHSERVCDIILPRLQKRYVLEEAEQLEPRVSALEEDMDDVESSEEEEEEDEKLERVPSPDHRRRSYRDLDKPRRSPTLRYRRSRSRSPRRRSRSPKRRSPSPRRERHRSKSPRRHRSRSRDRRHRSRSKSPGHHRSHRHRSHSKSPERSKKSHKKSRRGNE [PRPF38A]”, the “solubility change mitosis (log2)” value with HeLa Kyoto [1] worked out at 0.372. Moreover, the thermal stability score is -0.0926 in the data set on HeLa Kyoto [2] (setting [5]) and 1.13 with HeLa Kyoto [2] (cell cycle stage: mitosis). The “solubility in G1/S (log2)” value with HeLa Kyoto [3] is -1.32. Moreover, the results for the melting temperature in the data set on HeLa Kyoto [4] (cell cycle stage: G1/S) and in the data set with HeLa Kyoto [4] (cell cycle stage: mitosis) were 49 °C and 48.6 °C, respectively.

The record behind these values is the supplement of paper PMC5998384.
